Assay results: the supplement of paper PMC10567573

B1: GOLPH3 (parent)
chain: FAPLLDEQYDLATKRVRQLLDLDP

Variants of: B1
Test: protein stability index of a GFP-peptide fusion (GPS, HEK-293T) (PSI 1-6); higher = more stable
Conditions: c terminus: a fixed tail appended
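Also: lentivirally expressed fusions sorted by FACS into six bins by GFP to DsRed ratio, PSI derived from sequencing read proportions per bin multiplied by bin number.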

In order of falling protein stability index:
1. FAPLLDEQYDLATKRVRQLLFLDP  3.68
2. FAPLLDEQYDQATKRVRQLLDLDP  3.52
3. FAPLLDEQYDLATKRERQLLDLDP  3.32
4. FAPLLDEQYDLATKRVRQDLDLDP  3.22
5. FAPLLDEQYDLATKRVRQLPDLDP  3.2
6. FAPLLDEQYDLAGKRVRQLLDLDP  3.19
7. FAPLLDEQYDLATLRVRQLLDLDP  3.14
8. FAPLLDEQYDLATKRVDQLLDLDP  3.1
9. FAPLLDEQYDMATKRVRQLLDLDP  3.03
10. FAPLLDEQYDLATKRVRVLLDLDP  2.99
11. FAPLLDEQYDLATDRVRQLLDLDP  2.94
12. FAPLLDEQYDLADKRVRQLLDLDP  2.92
13. FAPLLDEQYDLATKRVRQLADLDP  2.92
14. FAPLLDEQYDPATKRVRQLLDLDP  2.91
15. FAPLLDEQYDLATKRVNQLLDLDP  2.83
16. FAPLLDEQYDWATKRVRQLLDLDP  2.82
17. FAPLLDEQYDLMTKRVRQLLDLDP  2.8
18. FAPLLDEQYDLATKRVQQLLDLDP  2.77
19. FAPLLDEQYDLATKRVRQLEDLDP  2.76
20. FAPLLDEQYDLATKRGRQLLDLDP  2.75
21. FAPLLDEQYDLATKDVRQLLDLDP  2.73
22. FAPLLDEQYDHATKRVRQLLDLDP  2.73
23. FAPLLDEQYDLDTKRVRQLLDLDP  2.72
24. FAPLLDEQYDLATKRVRQALDLDP  2.7
25. FAPLLDEQYDLATKRVRFLLDLDP  2.67
26. FAPLLDEQYDLETKRVRQLLDLDP  2.66
27. FAPLLDEQYDLATKRVRQPLDLDP  2.65
28. FAPLLDEQYDLATKRVRQTLDLDP  2.61
29. FAPLLDEQYDLATKRVSQLLDLDP  2.61
30. FAPLLDEQYDLATKRTRQLLDLDP  2.59
31. FAPLLDEQYDLATKRVRQLKDLDP  2.59
32. FAPLLDEQYDLATKRVRQLIDLDP  2.59
33. FAPLLDEQYDLATKRVRQELDLDP  2.58
34. FAPLLDEQYDLATKRYRQLLDLDP  2.58
35. FAPLLDEQYDLATKAVRQLLDLDP  2.56
36. FAPLLDEQYDLAEKRVRQLLDLDP  2.56
37. FAPLLDEQYDKATKRVRQLLDLDP  2.56
38. FAPLLDEQYDLATKRVRQLSDLDP  2.53
39. FAPLLDEQYDLATKRVRALLDLDP  2.52
40. FAPLLDEQYDLATKRVRLLLDLDP  2.52
41. FAPLLDEQYDYATKRVRQLLDLDP  2.51
42. FAPLLDEQYDLATKPVRQLLDLDP  2.48
43. FAPLLDEQYDLNTKRVRQLLDLDP  2.47
44. FAPLLDEQYDLATKRVRHLLDLDP  2.47
45. FAPLLDEQYDLATKRVRQILDLDP  2.46
46. FAPLLDEQYDLATKRVGQLLDLDP  2.45
47. FAPLLDEQYDLATKRVPQLLDLDP  2.45
48. FAPLLDEQYDLATKRPRQLLDLDP  2.45
49. FAPLLDEQYDLATKEVRQLLDLDP  2.43
50. FAPLLDEQYDLHTKRVRQLLDLDP  2.43
51. FAPLLDEQYDLATKRVRDLLDLDP  2.43
52. FAPLLDEQYDLATKRVRQLGDLDP  2.42
53. FAPLLDEQYDLATKRVEQLLDLDP  2.41
54. FAPLLDEQYDLAAKRVRQLLDLDP  2.41
55. FAPLLDEQYDLATKRQRQLLDLDP  2.4
56. FAPLLDEQYDGATKRVRQLLDLDP  2.38
57. FAPLLDEQYDLATKRVAQLLDLDP  2.37
58. FAPLLDEQYDLSTKRVRQLLDLDP  2.36
59. FAPLLDEQYDIATKRVRQLLDLDP  2.36
60. FAPLLDEQYDLATKRVRWLLDLDP  2.36
61. FAPLLDEQYDLATKVVRQLLDLDP  2.35
62. FAPLLDEQYDLATKRVRQLDDLDP  2.34
63. FAPLLDEQYDLATKRVRILLDLDP  2.34
64. FAPLLDEQYDLATKRVRQVLDLDP  2.33
65. FAPLLDEQYDLAKKRVRQLLDLDP  2.32
66. FAPLLDEQYDLATKNVRQLLDLDP  2.3
67. FAPLLDEQYDLTTKRVRQLLDLDP  2.3
68. FAPLLDEQYDLATKRVRQLMDLDP  2.3
69. FAPLLDEQYDLATKRVRQLLGLDP  2.29
70. FAPLLDEQYDLATPRVRQLLDLDP  2.29
71. FAPLLDEQYDLATCRVRQLLDLDP  2.29
72. FAPLLDEQYDLAVKRVRQLLDLDP  2.28
73. FAPLLDEQYDLALKRVRQLLDLDP  2.28
74. FAPLLDEQYDNATKRVRQLLDLDP  2.28
75. FAPLLDEQYDTATKRVRQLLDLDP  2.28
76. FAPLLDEQYDLATWRVRQLLDLDP  2.28
77. FAPLLDEQYDLATKRVRQWLDLDP  2.27
78. FAPLLDEQYDLATKRVMQLLDLDP  2.27
79. FAPLLDEQYDLATKRVRQLTDLDP  2.27
80. FAPLLDEQYDLATKRVRQLCDLDP  2.27
81. FAPLLDEQYDSATKRVRQLLDLDP  2.27
82. FAPLLDEQYDLATKRVRQGLDLDP  2.26
83. FAPLLDEQYDLATKRVRQLNDLDP  2.25
84. FAPLLDEQYDLATKLVRQLLDLDP  2.24
85. FAPLLDEQYDLATKRVRQQLDLDP  2.24
86. FAPLLDEQYDLASKRVRQLLDLDP  2.24
87. FAPLLDEQYDLATKRVRQLQDLDP  2.24
88. FAPLLDEQYDLATRRVRQLLDLDP  2.24
89. FAPLLDEQYDLATKRVIQLLDLDP  2.22
90. FAPLLDEQYDLAPKRVRQLLDLDP  2.22
91. FAPLLDEQYDLATKRVRQSLDLDP  2.21
92. FAPLLDEQYDVATKRVRQLLDLDP  2.21
93. FAPLLDEQYDLATKRVRTLLDLDP  2.21
94. FAPLLDEQYDLATKRVRNLLDLDP  2.2
95. FAPLLDEQYDLATKRIRQLLDLDP  2.19
96. FAPLLDEQYDLAHKRVRQLLDLDP  2.18
97. FAPLLDEQYDLATKRVRKLLDLDP  2.18
98. FAPLLDEQYDLQTKRVRQLLDLDP  2.16
99. FAPLLDEQYDLATKRVRQKLDLDP  2.14
100. FAPLLDEQYDLATKRVCQLLDLDP  2.14
101. FAPLLDEQYDLATERVRQLLDLDP  2.14
102. FAPLLDEQYDLATKRVLQLLDLDP  2.13
103. FAPLLDEQYDLGTKRVRQLLDLDP  2.12
104. FAPLLDEQYDLATKRARQLLDLDP  2.12
105. FAPLLDEQYDLATKQVRQLLDLDP  2.11
106. FAPLLDEQYDLATKRVTQLLDLDP  2.11
107. FAPLLDEQYDLATKRVRQLWDLDP  2.11
108. FAPLLDEQYDLATTRVRQLLDLDP  2.11
109. FAPLLDEQYDLATKRVRSLLDLDP  2.11
110. FAPLLDEQYDLATKCVRQLLDLDP  2.1
111. FAPLLDEQYDLATKRVRQLLLLDP  2.1
112. FAPLLDEQYDLATKRVRQHLDLDP  2.09
113. FAPLLDEQYDLATKRCRQLLDLDP  2.09
114. FAPLLDEQYDLATKRVRQLLELDP  2.08
115. FAPLLDEQYDLATKRVRGLLDLDP  2.08
116. FAPLLDEQYDLATKFVRQLLDLDP  2.06
117. FAPLLDEQYDLATKRVRELLDLDP  2.06
118. FAPLLDEQYDLATKHVRQLLDLDP  2.04
119. FAPLLDEQYDLPTKRVRQLLDLDP  2.04
120. FAPLLDEQYDLRTKRVRQLLDLDP  2.04
121. FAPLLDEQYDLATKRVRPLLDLDP  2.04
122. FAPLLDEQYDLATKRVVQLLDLDP  2.03
123. FAPLLDEQYDLATKRDRQLLDLDP  2.02
124. FAPLLDEQYDLATNRVRQLLDLDP  2.02
125. FAPLLDEQYDLATKRVRMLLDLDP  2.02
126. FAPLLDEQYDLATKIVRQLLDLDP  2.01
127. FAPLLDEQYDLATKRNRQLLDLDP  2
128. FAPLLDEQYDLATSRVRQLLDLDP  2
129. FAPLLDEQYDLATKMVRQLLDLDP  1.99
130. FAPLLDEQYDLKTKRVRQLLDLDP  1.99
131. FAPLLDEQYDLATHRVRQLLDLDP  1.99
132. FAPLLDEQYDLATGRVRQLLDLDP  1.99
133. FAPLLDEQYDLATKRVRQLHDLDP  1.98
134. FAPLLDEQYDLATYRVRQLLDLDP  1.97
135. FAPLLDEQYDLAFKRVRQLLDLDP  1.96
136. FAPLLDEQYDLATKRMRQLLDLDP  1.96
137. FAPLLDEQYDLATKRVRQLVDLDP  1.94
138. FAPLLDEQYDLATKRVRQLYDLDP  1.94
139. FAPLLDEQYDLATKKVRQLLDLDP  1.93
140. FAPLLDEQYDLATKRVFQLLDLDP  1.93
141. FAPLLDEQYDLATKRVRQLRDLDP  1.91
142. FAPLLDEQYDLANKRVRQLLDLDP  1.9
143. FAPLLDEQYDLATKRVRQNLDLDP  1.89
144. FAPLLDEQYDLAMKRVRQLLDLDP  1.89
145. FAPLLDEQYDLVTKRVRQLLDLDP  1.88
146. FAPLLDEQYDLATQRVRQLLDLDP  1.88
147. FAPLLDEQYDLATKRVHQLLDLDP  1.87
148. FAPLLDEQYDLATKRVRQYLDLDP  1.85
149. FAPLLDEQYDLATKRVRQLLMLDP  1.85
150. FAPLLDEQYDLAQKRVRQLLDLDP  1.84
151. FAPLLDEQYDLATVRVRQLLDLDP  1.84
152. FAPLLDEQYDLATKRVRQLFDLDP  1.83
153. FAPLLDEQYDLLTKRVRQLLDLDP  1.82
154. FAPLLDEQYDLATKRRRQLLDLDP  1.82
155. FAPLLDEQYDLATKSVRQLLDLDP  1.8
156. FAPLLDEQYDLATKRVKQLLDLDP  1.8
157. FAPLLDEQYDLATKRVRQMLDLDP  1.78
158. FAPLLDEQYDLATKTVRQLLDLDP  1.76
159. FAPLLDEQYDLATARVRQLLDLDP  1.76
160. FAPLLDEQYDLATKGVRQLLDLDP  1.74
161. FAPLLDEQYDLFTKRVRQLLDLDP  1.74
162. FAPLLDEQYDLATKRVYQLLDLDP  1.74
163. FAPLLDEQYDLATKRSRQLLDLDP  1.74
164. FAPLLDEQYDLATKRVRYLLDLDP  1.74
165. FAPLLDEQYDLATKRVRQRLDLDP  1.65
166. FAPLLDEQYDLATKRHRQLLDLDP  1.65
167. FAPLLDEQYDLATKRVRQLLKLDP  1.64
168. FAPLLDEQYDLATIRVRQLLDLDP  1.64
169. FAPLLDEQYDLATKRVRQFLDLDP  1.63
170. FAPLLDEQYDLATKWVRQLLDLDP  1.61
171. FAPLLDEQYDLAIKRVRQLLDLDP  1.6
172. FAPLLDEQYDLATMRVRQLLDLDP  1.59
173. FAPLLDEQYDLCTKRVRQLLDLDP  1.57
174. FAPLLDEQYDLARKRVRQLLDLDP  1.57
175. FAPLLDEQYDLATKRVRQLLHLDP  1.55
176. FAPLLDEQYDLACKRVRQLLDLDP  1.54
177. FAPLLDEQYDLATKRKRQLLDLDP  1.54
178. FAPLLDEQYDLATKYVRQLLDLDP  1.51
179. FAPLLDEQYDLATKRLRQLLDLDP  1.51
180. FAPLLDEQYDLATKRVRQCLDLDP  1.49
181. FAPLLDEQYDLATKRVRQLLALDP  1.47
182. FAPLLDEQYDLATKRVRQLLILDP  1.45
183. FAPLLDEQYDLATKRVRRLLDLDP  1.44
184. FAPLLDEQYDLITKRVRQLLDLDP  1.43
185. FAPLLDEQYDLATKRVRCLLDLDP  1.38
186. FAPLLDEQYDLATKRWRQLLDLDP  1.37
187. FAPLLDEQYDLAYKRVRQLLDLDP  1.28
188. FAPLLDEQYDLATFRVRQLLDLDP  1.17
